Patent publication US20150087581A1 (AURIGENE DISCOVERY TECHNOLOGIES, published 2015)
Bridges are numbered along the chain shown (N, C = ends). Where no end group is shown, it is not given here. [ ]: non-standard residue; d: D form. The star is where a group is joined. R5 = C=CCCC[C@@](C)(N)C(=O)O; Hexanoyl = CCCCCC(=O)*

B1: Compound 1 (peptide)
peptide: SNTSESF-NH2
B2: Compound 25 (peptide)
peptide: SNTSESFKFRVTQLAQIKE-NH2
modifications: not fully specified (residue 8)
B3: Compound 16 (peptide)
peptide: Hexanoyl-SNTSESFKFRVTQLAPKAQIKE-NH2
modifications: not fully specified (residue 8)
B4: Compound 32 (peptide)
peptide: SNTSESFKKAQIKE-NH2
modifications: not fully specified (residue 8)
B5: Compound 27 (peptide)
peptide: SNTSESFKFRVTQLAPKAQIKE-NH2
B6: Compound 28 (peptide)
peptide: SNTSESFKSNTSESFFRVTQLAPKAQIKE-NH2
B7: Compound 31 (peptide)
peptide: SNTSESFKFRVTQKAQIKE-NH2
modifications: not fully specified (residue 8)
B8: Compound 21 (peptide)
peptide: Hexanoyl-SNTSESFKFRVTQLAPKAQIKE-NH2
modifications: not fully specified (residue 8)
B9: Compound 22 (peptide)
peptide: SNTSESF[R5]PKA[R5]SNTSESF-NH2
modifications: staple 8-12; not fully specified; printed as SNTSESFR5PKAR5SNTSESF
B10: Compound 11 (peptide)
peptide: SNTSESFKFRVTQLAPKAQIKE-NH2
modifications: not fully specified (residue 8)
B11: Compound 26 (peptide)
peptide: SNTSESFFRVTQLAPKAQIKE-NH2
B12: Compound 29 (peptide)
peptide: SNTSESFK-NH2
modifications: not fully specified (residue 8)
B13: Compound 14 (peptide)
peptide: EKIQAKPAYWNLVKDTQNS-NH2
modifications: not fully specified (residue 14)
B14: Compound 30 (peptide)
peptide: SNTSESFKLAPKAQIKE-NH2
modifications: not fully specified (residue 8)
B15: Compound 20 (peptide)
peptide: SNTSESFKFRVTQLAPKAQIKE-NH2
modifications: not fully specified (residue 8)
B16: Compound 17 (peptide)
peptide: Ac-SNTSESFKFRVTQLAPKAQIKE-NH2
modifications: not fully specified (residue 8)
B17: Compound 35 (peptide)
peptide: SNTSESFKFRVTQKKAQIKE-NH2
modifications: not fully specified (residues 8, 14)

Target: hPDL1 expressed on MDA-MB231 cells (human, UniProt Q9NZQ7 19-290)
Assay: cell-based or functional assay

hPDL1 expressed on MDA-MB231 cells, sequence (Q9NZQ7 19-290): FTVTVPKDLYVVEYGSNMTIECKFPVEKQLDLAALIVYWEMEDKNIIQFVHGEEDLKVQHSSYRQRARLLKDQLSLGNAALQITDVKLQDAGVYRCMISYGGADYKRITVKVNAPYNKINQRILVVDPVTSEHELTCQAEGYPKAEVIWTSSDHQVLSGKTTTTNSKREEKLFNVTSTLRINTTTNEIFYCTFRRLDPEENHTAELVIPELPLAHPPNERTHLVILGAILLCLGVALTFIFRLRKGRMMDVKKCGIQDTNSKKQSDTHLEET

Row | Binder | Percent rescue (100 nM, compared with 100 nM Comp 8) in mouse splenocyte proliferation CFSE based assay [%]
1 | B1 | 96.5
2 | B2 | 27.6
3 | B3 | 45.8
4 | B4 | 14.8
5 | B5 | 73.6
6 | B6 | 56.5
7 | B7 | 11.3
8 | B8 | 76.7
9 | B9 | 71.4
10 | B10 | 12.4
11 | B11 | 86.6
12 | B12 | 31.1
13 | B13 | 18
14 | B14 | 58.8
15 | B15 | 27.8
16 | B16 | 32.9
17 | B17 | 81.2
